Molecular target: myc-tagged SynDIG4 (wild type), Q6MG82
Test: co-immunoprecipitation (IP: HA, blot: myc), quantified
Details: chain shown with the change; HEK293T cells; fourth bar chart of panel D (µ2 FLD vs µ2 ALS); parent: est. 100; read off a plot

Chain of myc-tagged SynDIG4 (wild type), Q6MG82 (Q6MG82 whole entry): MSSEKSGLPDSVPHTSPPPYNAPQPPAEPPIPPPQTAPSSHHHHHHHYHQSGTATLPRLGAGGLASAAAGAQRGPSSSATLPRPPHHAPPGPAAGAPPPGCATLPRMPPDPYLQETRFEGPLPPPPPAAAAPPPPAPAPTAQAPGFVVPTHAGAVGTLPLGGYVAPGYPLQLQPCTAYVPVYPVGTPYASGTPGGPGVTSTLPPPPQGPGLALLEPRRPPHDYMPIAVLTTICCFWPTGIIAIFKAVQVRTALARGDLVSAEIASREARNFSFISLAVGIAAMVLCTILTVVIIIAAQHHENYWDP

percent of parent: 50 % µ2
B1: HA-tagged μ2 AP subunit, Q96CW1 FLD→ALS (protein)
chain: MIGGLFIYNHKGEVLISRVYRDDIGRNAVDAFRVNVIHARQQVRSPVTNIARTSFFHVKRSNIWLAAVTKQNVNAAMVFEFLYKMCDVMAAYFGKISEENIKNNFVLIYELLDEILDFGYPQNSETGALKTFITQQGIKSQHQTKEEQSQITSQVTGQIGWRREGIKYRRNELALSVLESVNLLMSPQGQVLSAHVSGRVVMKSYLSGMPECKFGMNDKIVIEKQGKGTADETSKSGKQSIAIDDCTFHQCVRLSKFDSERSISFIPPDGEFELMRYRTTKDIILPFRVIPLVREVGRTKLEVKVVIKSNFKPSLLAQKIEVRIPTPLNTSGVQVICMKGKAKYKASENAIVWKIKRMAGMKESQISAEIELLPTNDKKKWARPPISMNFEVPFAPSGLKVRYLKVFEPKLNYSDHDVIKWVRYIGRSGIYETRC

From PMC11798926
